According to paper PMC4674748, “Identification of the Replication Origins from Cyanothece ATCC 51142 and Their Interactions with the DnaA Protein: From In Silico to In Vitro Studies”:

Target: T1, His6-DnaA (IV) (Cyanothece ATCC 51142, UniProt B1X0X6 331-455)
T1 sequence: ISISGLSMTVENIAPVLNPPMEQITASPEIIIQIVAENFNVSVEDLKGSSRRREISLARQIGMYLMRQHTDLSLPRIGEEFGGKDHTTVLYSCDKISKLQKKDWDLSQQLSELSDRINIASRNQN
Experiment: EMSA; 5-100 nM protein; 3 mM ATP, poly(dI-dC); better affinity than Lbox23; EMSA: 20 mM Hepes/KOH pH 8.0, 5 mM Mg acetate, 1 mM Na2EDTA, 4 mM DTT, 0.2% Triton X-100, 3 mM ATP, 5 mg/mL BSA, poly(dI-dC), 37 C 30 min; footprint: 25 C 30 min, 400 ng probe in 40 uL
Details: protein: recombinant; tags: N-terminal His6 (pET-28a, BamHI/HindIII); blunt

B1: Cbox23 (2Box2B, 35 nt) (dsDNA)
DNA 1: CCTTTAAATTTTTCCACAGTTTTTCCACAGCATTA
DNA 2: TAATGCTGTGGAAAAACTGTGGAAAAATTTAAAGG
B1: binds.
